Assay results reported in PMC8651051 (Science Translational Medicine, 2021).

B1: COVA1-16 Fab (Fab, V domains shown)
VH: QVQLVQSGAEVKKPGASVKVSCKASGYTFTSYYMHWVRQAPGQGLEWMGIINSSGGSTSYAQKFQGRVTMTRDTSTSTVYMELSSLRSEDTAVYYCARPPRNYYDRSGYYQRAEYFQHWGQGTLVTVSS
VL: DIQLTQSPSSLSASVGDRVTITCQASQDISNYLNWYQQRPGKAPKLLIYDASNLETGVPSRFSGSGSGTDFTFTISSLQPEDIATYYCQQYDNPPLTFGGGTKLEIK
B2: COVA1-16 Fab (Fab, V domains shown)
VH: B1 VH
VL: B1 VL

Key:
[1] = target: SARS-CoV-2 RBD, truncated version (residues 333 to 529) used for crystallization (SARS-CoV-2, UniProt P0DTC2); experiment: crystal structure; details: both partners purified
[2] = target: SARS-CoV-2 RBD, truncated version (residues 333 to 529) (SARS-CoV-2, UniProt P0DTC2); experiment: crystal structure; details: both partners purified

| Binder | binding result [1] | binding result [2] |
| --- | --- | --- |
| B1 | binds | – |
| B2 | – | binds |
